# Target: T1, CNOT1 (UniProt A5YKK6 1-2376)
# T1 construct: CNOT1, scaffold subunit of the CCR4-NOT deadenylase complex; Endogenous human CNOT1 of the SK-N-SH cells is precipitated by the anti-CNOT1 antibody as well; source: SK-N-SH, transfected (CNOT1 plasmid), in lysate
# Assay: co-IP; anti-CNOT1 antibody or control IgG, protein A/G magnetic beads; lysates of SK-N-SH cells 48 h after co-transfection with CNOT1 and either empty or AUF1-expressing plasmid; PLB lysis buffer (10 mM HEPES pH 7.0, 100 mM KCl, 5 mM MgCl2, 0.5% NP-40); washes in NT2 buffer with 250 mM NaCl; Western blot
# Conditions: partners not purified
# T1 sequence (A5YKK6 whole entry): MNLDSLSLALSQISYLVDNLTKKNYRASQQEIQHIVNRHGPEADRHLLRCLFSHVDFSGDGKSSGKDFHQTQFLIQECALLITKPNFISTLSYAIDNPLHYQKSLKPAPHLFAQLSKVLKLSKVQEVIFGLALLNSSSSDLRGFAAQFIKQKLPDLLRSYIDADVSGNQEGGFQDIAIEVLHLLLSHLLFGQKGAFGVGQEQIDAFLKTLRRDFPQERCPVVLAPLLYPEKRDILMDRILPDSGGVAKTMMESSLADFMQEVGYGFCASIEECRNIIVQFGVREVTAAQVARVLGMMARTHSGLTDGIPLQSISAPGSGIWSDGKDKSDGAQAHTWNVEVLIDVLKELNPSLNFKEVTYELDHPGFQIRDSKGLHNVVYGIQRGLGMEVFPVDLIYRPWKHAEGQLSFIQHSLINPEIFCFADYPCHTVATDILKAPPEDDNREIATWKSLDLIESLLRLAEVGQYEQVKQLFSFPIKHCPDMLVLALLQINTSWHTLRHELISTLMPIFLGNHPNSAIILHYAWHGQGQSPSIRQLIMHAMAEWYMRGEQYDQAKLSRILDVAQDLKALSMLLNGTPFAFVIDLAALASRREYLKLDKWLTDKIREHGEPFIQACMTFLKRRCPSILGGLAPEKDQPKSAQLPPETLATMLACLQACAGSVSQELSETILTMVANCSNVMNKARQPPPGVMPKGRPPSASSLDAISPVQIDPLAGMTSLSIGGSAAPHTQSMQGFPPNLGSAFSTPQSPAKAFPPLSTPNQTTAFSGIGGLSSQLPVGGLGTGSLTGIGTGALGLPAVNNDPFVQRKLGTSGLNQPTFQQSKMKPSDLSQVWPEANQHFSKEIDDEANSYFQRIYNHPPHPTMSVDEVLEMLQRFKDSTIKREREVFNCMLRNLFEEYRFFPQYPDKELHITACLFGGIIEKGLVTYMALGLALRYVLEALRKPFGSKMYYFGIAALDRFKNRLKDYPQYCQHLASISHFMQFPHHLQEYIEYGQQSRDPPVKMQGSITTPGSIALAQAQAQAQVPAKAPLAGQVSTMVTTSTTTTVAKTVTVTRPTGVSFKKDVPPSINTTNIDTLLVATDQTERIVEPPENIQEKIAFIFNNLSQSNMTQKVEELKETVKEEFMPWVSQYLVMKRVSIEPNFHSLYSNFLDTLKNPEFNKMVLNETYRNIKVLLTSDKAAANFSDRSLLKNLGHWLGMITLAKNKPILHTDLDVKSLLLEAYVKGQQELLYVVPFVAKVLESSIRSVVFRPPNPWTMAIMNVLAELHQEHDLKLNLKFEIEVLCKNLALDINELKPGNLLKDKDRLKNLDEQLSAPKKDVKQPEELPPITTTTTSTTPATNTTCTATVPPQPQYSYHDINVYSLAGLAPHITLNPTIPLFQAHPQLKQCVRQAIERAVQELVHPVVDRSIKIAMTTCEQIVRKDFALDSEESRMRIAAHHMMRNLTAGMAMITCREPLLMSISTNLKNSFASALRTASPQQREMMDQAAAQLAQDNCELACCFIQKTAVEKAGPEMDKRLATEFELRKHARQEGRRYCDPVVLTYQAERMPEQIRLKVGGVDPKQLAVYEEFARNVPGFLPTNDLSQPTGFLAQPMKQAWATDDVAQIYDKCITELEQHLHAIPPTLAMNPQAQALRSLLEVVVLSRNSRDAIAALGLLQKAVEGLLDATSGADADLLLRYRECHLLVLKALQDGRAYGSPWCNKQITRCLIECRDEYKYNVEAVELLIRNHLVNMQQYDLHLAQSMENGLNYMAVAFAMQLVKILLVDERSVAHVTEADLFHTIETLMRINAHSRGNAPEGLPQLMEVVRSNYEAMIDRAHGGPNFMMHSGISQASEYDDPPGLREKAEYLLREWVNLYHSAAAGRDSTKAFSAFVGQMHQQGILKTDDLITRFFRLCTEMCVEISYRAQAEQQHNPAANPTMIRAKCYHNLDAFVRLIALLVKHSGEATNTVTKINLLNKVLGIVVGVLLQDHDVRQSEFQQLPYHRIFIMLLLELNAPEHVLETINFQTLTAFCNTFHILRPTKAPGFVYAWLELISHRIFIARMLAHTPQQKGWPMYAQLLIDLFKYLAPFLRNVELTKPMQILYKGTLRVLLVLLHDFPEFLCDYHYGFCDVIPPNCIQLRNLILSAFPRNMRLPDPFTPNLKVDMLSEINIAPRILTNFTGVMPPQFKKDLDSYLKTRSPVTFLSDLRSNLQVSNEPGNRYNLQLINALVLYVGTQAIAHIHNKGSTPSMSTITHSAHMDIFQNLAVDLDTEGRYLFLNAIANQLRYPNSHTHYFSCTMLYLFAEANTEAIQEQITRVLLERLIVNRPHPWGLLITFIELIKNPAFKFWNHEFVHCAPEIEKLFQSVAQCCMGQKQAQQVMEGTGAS
binder,measurement,value
"AUF1 (heterogeneous nuclear ribonucleoprotein D, HNRNPD), 42 kDa protein (natural protein, human, UniProt Q14103-2 1-336, looked up, human AUF1/HNRNPD CDS encoding the 42 kDa protein (p42 isoform), amplified from SK-N-SH cDNA and cloned between KpnI and NotI of pENTR-GD; The co-IP was done in cells transfected with empty or AUF1-expressing plasmid; the anti-AUF1 blot also detects the endogenous AUF1 isoforms (p37, p40, p42, p45) of SK-N-SH cells; also called p42; source: SK-N-SH, transfected (AUF1-expressing plasmid), in lysate) MSEEQFGGDGAAAAATAAVGGSAGEQEGAMVAATQGAAAAAGSGAGTGGGTASGGTEGGSAESEGAKIDASKNEEDEGKMFIGGLSWDTTKKDLKDYFSKFGEVVDCTLKLDPITGRSRGFGFVLFKESESVDKVMDQKEHKLNGKVIDPKRAKAMKTKEPVKKIFVGGLSPDTPEEKIREYFGGFGEVESIELPMDNKTNKRRGFCFITFKEEEPVKKIMEKKYHNVGLSKCEIKVAMSKEQYQQQQQWGSRGGFAGRARGRGGGPSQNWNQGYSNYWNQGYGNYGYNSQGYGGYGGYDYTGYNNYYGYGDYSNQQSGYGKVSRRGGHQNSYKPY",fold enrichment in the CNOT1 immunoprecipitate,1.6 fold

# From article PMC10688287, “RNA binding protein AUF1/HNRNPD regulates nuclear export, stability and translation of SNCA transcripts” (Open Biology, 2023)
